Where a chain is given by its changes, count along the chain named.
Assays:
[1] = target: T1, SARS-CoV-2 S protein of B.1.1.7 (alpha) variant, on pseudotyped MLV particles (SARS-CoV-2, UniProt P0DTC2 14-1273); test: cell-based or functional assay
[2] = target: T2, SARS-CoV-2 S protein of B.1.617.2 (delta) variant, on pseudotyped MLV particles (SARS-CoV-2, UniProt P0DTC2 14-1273); test: cell-based or functional assay
[3] = target: SARS-CoV-2 S protein of beta variant, on pseudotyped MLV particles (SARS-CoV-2, UniProt P0DTC2 14-1273); test: cell-based or functional assay
[4] = target: T3, SARS-CoV-2 S protein of B.1.617 (kappa) variant, on pseudotyped MLV particles (SARS-CoV-2, UniProt P0DTC2 14-1273); test: cell-based or functional assay
[5] = target: SARS-CoV-2 S protein of gamma variant, on pseudotyped MLV particles (SARS-CoV-2, UniProt P0DTC2 14-1273); test: cell-based or functional assay
[6] = target: SARS-CoV-2 S protein of the wild-type, on pseudotyped lentiviral particles (SARS-CoV-2); test: cell-based or functional assay
[7] = target: T1, SARS-CoV-2 S protein of B.1.1.7 (alpha) …; test: cell-based or functional assay; remark: listed apart in the source
[8] = target: T2, SARS-CoV-2 S protein of B.1.617.2 …; test: cell-based or functional assay; remark: listed apart in the source
[9] = target: T3, SARS-CoV-2 S protein of B.1.617 (kappa) …; test: cell-based or functional assay; remark: listed apart in the source
[10] = target: SARS-CoV-2 RBD protein (Fc-tagged) (SARS-CoV-2, UniProt P0DTC2 319-541)
[11] = target: T4, SARS-CoV-2 RBD, Delta (B.1.617.2) variant (SARS-CoV-2, UniProt P0DTC2 319-541); test: SPR, RBD immobilised
T4 construct: domain: RBD

[12] = target: T5, SARS-CoV-2 RBD, Kappa (B.1.617.1) variant (SARS-CoV-2, UniProt P0DTC2 319-541); test: SPR, RBD immobilised
T5 construct: domain: RBD

[13] = target: T6, SARS-CoV-2 RBD, Beta (B.1.351) variant (SARS-CoV-2, UniProt P0DTC2 319-541); test: SPR, RBD immobilised
T6 construct: domain: RBD

[14] = target: T7, SARS-CoV-2 RBD, Alpha (B.1.1.7) variant (SARS-CoV-2, UniProt P0DTC2 319-541); test: SPR, RBD immobilised
T7 construct: domain: RBD

[15] = target: T8, SARS-CoV-2 RBD, Gamma (P.1) variant (SARS-CoV-2, UniProt P0DTC2 319-541); test: SPR, RBD immobilised
T8 construct: domain: RBD

[16] = target: T4, SARS-CoV-2 RBD, Delta (B.1.617.2) …; test: competition ELISA: RBD-His with antibody, binding to coated hACE2-Fc
[17] = target: T5, SARS-CoV-2 RBD, Kappa (B.1.617.1) …; test: as above
[18] = target: T6, SARS-CoV-2 RBD, Beta (B.1.351) variant; test: as above
[19] = target: T8, SARS-CoV-2 RBD, Gamma (P.1) variant; test: as above
[20] = target: T4, SARS-CoV-2 RBD, Delta (B.1.617.2) …; test: SPR, RBD immobilised, 1:1 model
[21] = target: T5, SARS-CoV-2 RBD, Kappa (B.1.617.1) …; test: SPR, RBD immobilised, 1:1 model
[22] = target: T6, SARS-CoV-2 RBD, Beta (B.1.351) variant; test: SPR, RBD immobilised, 1:1 model
[23] = target: T7, SARS-CoV-2 RBD, Alpha (B.1.1.7) variant; test: SPR, RBD immobilised, 1:1 model
[24] = target: T8, SARS-CoV-2 RBD, Gamma (P.1) variant; test: SPR, RBD immobilised, 1:1 model

B1: K202.A (bispecific antibody)
heavy: EVQLLESGGGLVQPGGSLRLSCAASGFTFSDYAMSWVRQAPGKGLEWVSWIYSGSGNKYYADSVKGRFTISRDNSKNTLYLQMNSLRAEDTAVYYCARFPIARTSNSQSSYDGMDVWGQGTLVTVSSASTKGPSVFPLAPCSRSTSESTAALGCLVKDYFPEPVTVSWNSGALTSGVHTFPAVLQSSGLYSLSSVVTVPSSSLGTKTYTCNVDHKPSNTKVDKRVESKYGPPCPPCPPCPAPEFLGGPSVFLFPPKPKDTLMISRTPEVTCVVVDVSQEDPEVQFNWYVDGVEVHNAKTKPREEQFNSTYRVVSVLTVLHQDWLNGKEYKCKVSNKGLPSSIEKGQPREPQVYTLPPSQEEMTKNQVSLTCLVKGFYPSDIAVEWESNGQPENNYKTTPPVLDSDGSFFLYSRLTVDKSRWQEGNVFSCSVMHEALHNHYTQKSLSLSLGK
light: QSVLTQPPSASGTPGQRVTISCSGSSSNIGSNAVSWYQQLPGTAPKLLIYADNKRPSGVPDRFSGSKSGTSASLAISGLRSEDEADYYCGAWDSSLNAYVFGGGTKLTVLVAAPSVFIFPPSDEQLKSGTASVVCLLNNFYPREAKVQWKVDNALQSGNSQESVTEQDSKDSTYSLSSTLTLSKADYEKHKVYACEVTHQGLSSPVTKSFNRGEC
scFv: EVQLLESGGGLVQPGGSLRLSCAASGFTFSSYDMSWVRQAPGKGLEWVSGISYSGGSTYYADSVKGRFTISRDNSKNTLYLQMNSLRAEDTAVYYCARDVNFVPLVTFDYWGQGTLVTVSSGGGGSGGGGSGGGGSQSVLTQPPSASGTPGQRVTLSCTGSSSNIGSNSVTWYQQLPGTAPKLLIYDDNQRPSGVPDRFSGSKSGTSASLAISGLRSEDEADYYCGTWDYSLSAYVFGGGTKLTVL
- IC50 (nM), pseudotyped virus infection [1]: 0.18 nM
- IC50 (nM), pseudotyped virus infection [2]: 1.83 nM
- IC50 (nM), pseudotyped virus infection [3]: 0.46 nM
- IC50 (nM), pseudotyped virus infection [4]: 0.24 nM
- IC50 (nM), pseudotyped virus infection [5]: 1.74 nM
- IC50 (nM), pseudotyped virus infection [6]: 0.27 nM

B2: K202.B (bispecific antibody)
heavy: B1 heavy
light: B1 light
scFv: B1 scFv
- IC50 (nM), pseudotyped virus infection [1]: 0.15 nM
- IC50 (nM), pseudotyped virus infection [2]: 0.13 nM
- IC50 (nM), pseudotyped virus infection [3]: 0.1 nM
- IC50 (nM), pseudotyped virus infection [4]: 0.05 nM
- IC50 (nM), pseudotyped virus infection [5]: 1.04 nM
- IC50 (nM), pseudotyped virus infection [6]: 0.16 nM

B3: RD3 (antibody, V domains shown)
VH: EVQLLESGGGLVQPGGSLRLSCAASGFTFSDYAMSWVRQAPGKGLEWVSWIYSGSGNKYYADSVKGRFTISRDNSKNTLYLQMNSLRAEDTAVYYCARFPIARTSNSQSSYDGMDVWGQGTLVTVSS
VL: QSVLTQPPSASGTPGQRVTISCSGSSSNIGSNAVSWYQQLPGTAPKLLIYADNKRPSGVPDRFSGSKSGTSASLAISGLRSEDEADYYCGAWDSSLNAYVFGGGTKLTVL
notes: also called K102.1
- IC50 (nM), pseudovirus neutralization, luciferase in 293T/hACE2 cells [7]: 6.16 nM
- IC50 (nM), pseudovirus neutralization, luciferase in 293T/hACE2 cells [8]: 4.48 nM
- IC50 (nM), pseudovirus neutralization, luciferase in 293T/hACE2 cells [9]: 94.8 nM
- IC50 (nM), pseudotyped virus infection [1]: 6.16 nM
- IC50 (nM), pseudotyped virus infection [2]: 4.48 nM

B4: RG6 (antibody, V domains shown)
VH: EVQLLESGGGLVQPGGSLRLSCAASGFTFSDYSMSWVRQAPGKGLEWVSGIYHSDGSKYYADSVKGRFTISRDNSKNTLYLQMNSLRAEDTAVYYCARFDPVFDYWGQGTLVTVSS
VL: B3 VL with S23T, S35N, N53S, K54N, S94A, N97S
- IC50 [10]: 84 nM

B5: RB6 (antibody, V domains shown)
VH: EVQLLESGGGLVQPGGSLRLSCAASGFTFSSYDMSWVRQAPGKGLEWVSGISYSGGSTYYADSVKGRFTISRDNSKNTLYLQMNSLRAEDTAVYYCARDVNFVPLVTFDYWGQGTLVTVSS
VL: B3 VL with I20L, S23T, A33S, S35T, A51D, K54Q, A91T, S94Y, N97S
notes: also called K102.2
- Kd [11]: 1.53 nM
- kon [11]: 333000 M⁻¹ s⁻¹
- Kd [12]: 1.68 nM
- kon [12]: 407000 M⁻¹ s⁻¹
- Kd [13]: 1.6 nM
- kon [13]: 492000 M⁻¹ s⁻¹
- Kd [14]: 3.62 nM
- kon [14]: 154000 M⁻¹ s⁻¹
- Kd [15]: 2.07 nM
- kon [15]: 454000 M⁻¹ s⁻¹
- IC50 [16]: 1.14 nM
- IC50 [17]: 0.4 nM
- IC50 [18]: 0.86 nM
- IC50 [19]: 3.23 nM
- Kd [20]: 1.53 nM
- kon [20]: 333000 M⁻¹ s⁻¹
- Kd [21]: 1.68 nM
- kon [21]: 407000 M⁻¹ s⁻¹
- Kd [22]: 1.6 nM
- kon [22]: 492000 M⁻¹ s⁻¹
- Kd [23]: 3.62 nM
- kon [23]: 154000 M⁻¹ s⁻¹
- Kd [24]: 2.07 nM
- kon [24]: 454000 M⁻¹ s⁻¹
